Measurements taken from paper PMC11667166, “O-glycosylation is essential for cell surface expression of the transcobalamin receptor CD320” (The Journal of Biological Chemistry, 2024).

Target: the molecule itself
Test: co-IP; CD320-FLAG and CD320-V5 co-expressed in HEK293 cells; immunoprecipitation with anti-FLAG or anti-V5 antibody, western blotting with anti-FLAG or anti-V5 under non-reducing conditions (~350-kDa band)

B1: human CD320 (transcobalamin receptor), wild type, with an N-terminal FLAG or V5 tag (receptor, UniProt Q9NPF0-1 36-282, looked up)
chain: SPLSTPTSAQAAGPSSGSCPPTKFQCRTSGLCVPLTWRCDRDLDCSDGSDEEECRIEPCTQKGQCPPPPGLPCPCTGVSDCSGGTDKKLRNCSRLACLAGELRCTLSDDCIPLTWRCDGHPDCPDSSDELGCGTNEILPEGDATTMGPPVTLESVTSLRNATTMGPPVTLESVPSVGNATSSSAGDQSGSPTAYGVIAAAAVLSASLVTATLLLLSWLRAQERLRPLGLLVAMKESLLLSEQKTSLP
modifications: N-glycans at N126, N195 and N213; terminally sialylated O-glycans (the ~70-kDa proteoform)
notes: CD320 (transcobalamin receptor), human, NCBI NP_057663.1; wild type; type I transmembrane protein with signal peptide, two LDLR repeats, EGF-like module, transmembrane domain and cytoplasmic segment; Two differently tagged copies of the same protein (one with N-terminal FLAG, one with N-terminal V5) were co-expressed; each chain carries only one of the two tags; The ~350-kDa complex is seen only …
  stoichiometry N: ~5
